Measurements published in patent US20260144862A1, “MATERIALS AND METHODS TO TREAT EPSTEIN-BARR VIRUS (EBV) AND EBV-INDUCED DISEASES” (Medizinische Universität Wien, priority 2022, published 2026).

What was measured:
HLA-E [1] = biological target: T1, HLA-E (Homo sapiens, UniProt P13747); assay: HLA-E stabilization by UL40 peptides on HLA-E-expressing RMA-S cells; assay type: cell-based; conditions: for Interpretation: HLA-E binding class of UL40 variant; for Mean MFI: HLA-E expression on the cell surface of RMA-S cells incubated with UL40 peptide; for HLA-E Upregulation: HLA-E-expressing RMA-S cells incubated with UL40 peptide
T1 construct: expressed in transfected cells; host or cells: mouse lymphoma cell line RMA-S/HLA-E/LFA-3, a gift from Chiara Romagnani, DRFZ Berlin
Text: Functionally, the expansion of NKG2C^+ NK cells in response to HCMV infections depends on a highly polymorphic HCMV UL40-encoded peptide in the respective infecting HCMV variant, which upregulates the NKG2C ligand HLA-E on the surface of HCMV-infected cells^52. […] HCMV variants were obtained from all 145 HCMV-seropositive MS patients during an episode of HCMV reactivation between EBV seroconversion and MS diagnosis, as well as from all HCMV seropositive EBNA^high (N=80) and EBNA^low (N=85) controls in any of the serum samples collected from the individuals over time. […] Therefore, we incubated HLA-E-expressing RMA-S cells with each of the 18 UL40 peptides and measured HLA-E expression on the cell surface.

EBV B95-8 isolate = assay: Virus (EBV) dissemination assay in K562-CR2-HLA-E cells; assay type: cell-based, Epstein-Barr virus; conditions: for viral spread (BZLF1+ K562-CR2-HLA-E cells); effect of peptide on NKG2A+ NK or NKG2A+ CD8+ T cell mediated prevention of the viral spread: 300 μM LMP-1 peptide, 2-14 days of co-culture
Experimental: For the virus dissemination assays, the marmoset B-lymphoblastoid cell line B95-8 was cultured in RPM1 1640 medium supplemented with 20 mM glutamine, 50 µg/ml gentamicin, 0.2 µg/ml amphotericin B and 10% FCS (Thermo-Scientific). Cells were then cultured in the presence of […] (Biomol) for two weeks. EBV was harvested from the supernatant and enriched by ultracentrifugation (30000 U/min, 90 min, 10° C.). The virus stocks were stored at −80° C. in RPMI 1640 medium+10% FCS+10% DMSO (all: Thermo-Scientific). The multiplicity of infection (MOI) of the viral stocks was determined on K562-CR2-HLA-E*0101/0101 and K562-CR2-HLA-E*0103/0103 cells by flow-cytometry.
RMA-S/HLA-E/LFA-3 cells (kindly provided by Chiara Romagnani, DRFZ, Berlin) were maintained in RPMI-1640+20 mM glutamine+10% FCS+20 μM β-mercaptoethanol+100 U/ml penicillin-streptomycin (all Thermo Fisher)+400 μg/ml hygromycin B+1 mg/ml G418 (both InvivoGen). 2×10^6 RMA-S/LFA3/HLA-E cells were incubated for 16 h at 37° C., 5% CO2, with 300 μM of respective peptides (Peptides&Elephants) in 1 ml serum-free OptiMEM (Thermo-Fisher). Cells were afterwards inactivated using 20 μg/mL Mitomycin C (Sigma Aldrich) at 37° C. for 30 minutes. Peptide pulsed RMA-S/LFA3/HLA-E cells were co-cultured with […] CFSE (Thermo-Fisher) stained CD56^+ or CD8^+ MACS-enriched cells for 7 days in RPMI+10% FCS. Proliferating (CFSE^low) NKG2A^+CD56^+ NK cells, NKG2A^+ CD8^+ T cells or […]-specific, HLA-E-restricted NKG2A^+ or NKG2A^− T cells were then sorted by FACS as described below.
Fresh K562-CR2-HLA-E*0101/0101 and K562-CR2-HLA-E*0103/0103 cells were then inactivated using 20 μg/mL Mitomycin C at 37° C. for 30 minutes and then infected with the EBV B95-8 isolate (MOI=1) for 24 h. The infected cells were then co-cultured together with the sorted NKG2A^+ CD56^+ NK cells, NKG2A^+ CD8^+ T cells or […]-specific, HLA-E-restricted NKG2A^+ or NKG2A^− T cells (E:T, 1:2). In some experiments, 300 μM of respective peptides was also added. At indicated time points, the cells were harvested and analyzed by flow-cytometry, as described below.

HLA-E [2] = assay: HLA-E stabilization assay on peptide-pulsed K562-HLA-E cells; conditions: K562-HLA-E*0103/0103 or K562-HLA-E*0101/0101 cells, 300 μM peptide, 16 h, flow-cytometry
Experimental: HLA-E surface stabilization was induced as previously described^32. In brief, TAP-incompetent K562-HLA-E*0101/0101 and K562-HLA-E*0103/0103 (kindly provided by Thorbald van Hall, Leiden University Medical Center) were cultured in Iscove's Modified Dulbecco's Medium (IMDM)+10% FCS (both: Thermo-Scientific). […] (positive control), BZLF1-derived [sequence] or LMP-1 peptides (Peptides&Elephants) in 1 ml Opti-MEM (Thermo-Fisher) for 16 h at 37° C. Peptide-pulsed cells were either stained for HLA-E surface expression by flow-cytometry analysis or washed with complete medium and used for in vitro stimulations.
The following conjugated mouse anti-human mAB were used for flow-cytometry: BV421-CD56 (NCAM 16.2), BV421-CD8 (RPA-T8), BV510-NKG2A (131411), APC/H7-CD107a (H4A3), APC/CD21 (all: BD), APC-CD3 (UCHT1), APC/Cy7-IFNγ (B27), APC-HLA/E (all: Biolegend), APC-Cy7-Granzyme B (Abcore), BZLF1-Alexa488 (Novusbio). Dead cells were identified using LIVE/DEAD Fixable Green Dead Cell Stain Kit (Thermo-Scientific) or 7-Aminoactinomycin D (7-AAD, Invitrogen). Flow-cytometry analysis was performed on a FACSCanto2 platform and FACSDiva Version 10.7.2 (BD).

NKG2C+ NK cells = assay: NKG2C+ NK cell response elicited by UL40 peptides; design: species or system human; conditions: UL40 peptide variant encoded by infecting HCMV isolate
HLA-E [3] = assay: LMP-1 dependent HLA-E up-regulation assay in GlialCAM370-389-specific B-cells; assay type: cell-based, human; conditions: B-cells from 24 healthy blood donors transfected with LMP-1 peptide, 16 h
Experimental: For the HLA-E stabilization experiments, 5×10^6 viable CFSE stained PBMCs were cultured in RPMI-1640+10% FCS in the presence of 10 μg GlialCAM370-389 ([…]), 10 μg of random 20 amino acid peptides (negative control, GenScript) or without peptides (non-peptide control) and 10 ng/mL IL-2 (Peprotech) at 37° C. Every three days, fresh 10 μg GlialCAM370-389 and 10 ng/mL IL-2 were added. After 7 days of co-culture, GlialCAM370-389-specific B-cells were sorted. 1×10^5 GlialCAM370-389-specific B-cells were then individually transfected with the indicated concentrations of the LMP-1 peptides (Peptides&Elephants) using the Pierce Protein Transfection Reagent according to the manufacturer's instructions (Thermo Fisher). After 16 h, the cells were either fixed and analyzed for HLA-E expression by flow cytometry, as described below, or washed once with Opti-MEM I Reduced Serum Medium (Gibco) and subsequently used in NKG2A^+ NK cell inhibition experiments. For the NKG2A^+ NK cell inhibition experiments, sorted NKG2A^+NKG2C^−NKG2D^− NK cells from 24 healthy blood donors were cultured together with peptide-pulsed GlialCAM370-389 B-cells (E:T, 1:1) for 6 h at 37° C. After co-cultivation, the supernatant was removed, cleared by centrifugation (1000×g, 5 min), and analyzed using IFNγ ELISA according to the manufacturer's recommendations (Thermo Fisher).

T1 sequence (P61769 21-119): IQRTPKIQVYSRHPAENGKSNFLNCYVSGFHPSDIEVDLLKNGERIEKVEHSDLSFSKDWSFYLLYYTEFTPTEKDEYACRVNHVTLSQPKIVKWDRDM
T1 sequence (P13747 22-358): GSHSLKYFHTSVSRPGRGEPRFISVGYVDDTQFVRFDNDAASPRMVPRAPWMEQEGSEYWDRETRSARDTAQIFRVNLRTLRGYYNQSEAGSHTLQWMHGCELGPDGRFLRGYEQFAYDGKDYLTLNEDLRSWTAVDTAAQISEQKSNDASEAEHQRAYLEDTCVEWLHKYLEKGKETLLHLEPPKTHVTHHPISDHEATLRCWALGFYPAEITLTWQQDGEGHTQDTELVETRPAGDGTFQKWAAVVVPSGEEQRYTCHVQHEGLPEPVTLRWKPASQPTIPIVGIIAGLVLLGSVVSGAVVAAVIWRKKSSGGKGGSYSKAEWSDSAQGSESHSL

Row | Sequence | Interpretation (HLA-E [1]) | Mean MFI (HLA-E [1]) | HLA-E Upregulation (HLA-E [1]) | other results
1 | VIAPRTLIL [HCMV UL40 peptide variant] | Low Binding (↑) | 1541 | 40.6% | –
2 | VLAPRTLLL [HCMV UL40 peptide variant] | Low Binding (↑) | 2059 | 54.2% | –
3 | GSDPHLPTL | – | – | – | viral spread (BZLF1+ K562-CR2-HLA-E cells); effect of peptide on NKG2A+ NK or NKG2A+ CD8+ T cell mediated prevention of the viral spread (EBV B95-8 isolate): no inhibitory effect; HLA-E upregulation / stabilization (surface expression of HLA-E) (HLA-E [2]): neither significant HLA-E upregulation
4 | VMAPRILIL [HCMV UL40 peptide variant] | Low Binding (↑) | 2056 | 54.2% | –
5 | VMTPRTLIL [HCMV UL40 peptide variant] | Low Binding (↑) | 2633 | 69.3% | –
6 | VMAPWTLIL [HCMV UL40 peptide variant] | Low Binding (↑) | 1210 | 31.9% | –
7 | GGDPHLPPL | – | – | – | viral spread (BZLF1+ K562-CR2-HLA-E cells); effect of peptide on NKG2A+ NK or NKG2A+ CD8+ T cell mediated prevention of the viral spread (EBV B95-8 isolate): no inhibitory effect; HLA-E upregulation / stabilization (surface expression of HLA-E) (HLA-E [2]): neither significant HLA-E upregulation
8 | VMAPRTLLL [HCMV UL40 peptide variant] | High Binding (↑↑) (a high-level of HLA-E stabilization, as defined by an HLA-E upregulation of >99.5%) | 3776 | 99.5% | NKG2C+ NK cell response (NKG2C+ NK cells): more potent NKG2C^+ NK cell response
9 | VMTPRTLLL [HCMV UL40 peptide variant] | Low Binding (↑) | 2519 | 66.3% | –
10 | VMTPRTLVL [HCMV UL40 peptide variant] | Low Binding (↑) | 2488 | 65.5% | –
11 | VMAPRSLIL [HCMV UL40 peptide variant] | Low Binding (↑) | 2074 | 54.6% | –
12 | VVAPRTLVL [HCMV UL40 peptide variant] | Low Binding (↑) | 1840 | 48.5% | –
13 | VMAPRTLFL [HCMV UL40 peptide variant] | High Binding (↑↑) (a high-level of HLA-E stabilization, as defined by an HLA-E upregulation of >99.5%) | 3797 | 100.0% | NKG2C+ NK cell response (NKG2C+ NK cells): more potent NKG2C^+ NK cell response
14 | GTDPHLPTL [only rarely detected EBV LMP-1 peptide variant] | – | – | – | viral spread (BZLF1+ K562-CR2-HLA-E cells); effect of peptide on NKG2A+ NK or NKG2A+ CD8+ T cell mediated prevention of the viral spread (EBV B95-8 isolate): increased viral spread; inhibition of NKG2A+ CD8+ T cells in EBV-dissemination assay (granzyme B-expressing cells) (EBV B95-8 isolate; peptide-pulsed K562-CR2-HLA-E*0103/0103 and K562-CR2-HLA-E*0101/0101 cells, sorted NKG2A+ CD8+ T cells): caused the inhibition; inhibition of NKG2A+ NK cells in EBV-dissemination assay (granzyme B-expressing cells) (EBV B95-8 isolate; peptide-pulsed K562-CR2-HLA-E*0103/0103 and K562-CR2-HLA-E*0101/0101 cells, sorted NKG2A+ NK cells): caused the inhibition; upregulation of HLA-E on the surface of GlialCAM370-389-specific B-cells (HLA-E [3]): stable upregulation of HLA-E
15 | VMAPWTLVL [HCMV UL40 peptide variant] | Low Binding (↑) | 1503 | 39.6% | –
16 | VMAPRSLLL [HCMV UL40 peptide variant] | Low Binding (↑) | 2351 | 61.9% | –
17 | VMGPRTLIL [HCMV UL40 peptide variant] | Low Binding (↑) | 1858 | 48.9% | –
18 | VMAPRILVL [HCMV UL40 peptide variant] | Low Binding (↑) | 2299 | 60.5% | –
19 | GMAPRTLLL [HCMV UL40 peptide variant] | Low Binding (↑) | 1575 | 41.5% | –
20 | VMAPRTLVL [HCMV UL40 peptide variant] | High Binding (↑↑) (a high-level of HLA-E stabilization, as defined by an HLA-E upregulation of >99.5%) | 3782 | – | NKG2C+ NK cell response (NKG2C+ NK cells): more potent NKG2C^+ NK cell response
